T1: FcgRIIa R (human, UniProt P12318 34-217)
T1 construct: extracellular domain; also called FcγRIIa R; FcγRIIa type R; not shown: His tag attached to the C terminus
T1 sequence (looked up): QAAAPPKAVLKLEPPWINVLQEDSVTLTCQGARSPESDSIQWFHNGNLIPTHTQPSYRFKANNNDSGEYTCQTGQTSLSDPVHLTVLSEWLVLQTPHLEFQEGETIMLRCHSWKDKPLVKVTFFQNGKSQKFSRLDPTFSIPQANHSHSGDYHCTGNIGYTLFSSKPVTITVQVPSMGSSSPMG

T2: FcgRIIb (human, UniProt P31994 43-217)
T2 construct: extracellular domain; Expressed in FreeStyle293 cells and purified; used as analyte in Biacore; also called FcγRIIb; CD32B; not shown: His tag attached to the C terminus
T2 sequence (looked up): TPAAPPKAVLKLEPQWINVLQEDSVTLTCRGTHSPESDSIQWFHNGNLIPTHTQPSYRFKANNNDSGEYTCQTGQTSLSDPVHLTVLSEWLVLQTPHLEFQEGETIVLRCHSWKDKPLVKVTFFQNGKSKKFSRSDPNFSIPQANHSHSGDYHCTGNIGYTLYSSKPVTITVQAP

T3: FcgRIIa H (human, UniProt P12318 34-217)
T3 construct: extracellular domain; also called FcγRIIa H; FcγRIIa type H; not shown: His tag attached to the C terminus
T3 sequence (looked up): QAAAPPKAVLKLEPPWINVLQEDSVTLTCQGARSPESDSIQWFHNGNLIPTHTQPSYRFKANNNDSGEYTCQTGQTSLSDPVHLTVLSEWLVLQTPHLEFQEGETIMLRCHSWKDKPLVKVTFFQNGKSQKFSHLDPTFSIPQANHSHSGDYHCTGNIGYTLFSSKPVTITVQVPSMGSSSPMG


Assays:
Experiment in all cases: SPR (Biacore), antibody captured on chip, FcgR extracellular domain as analyte
FcgRIIa R = target: T1, FcgRIIa R
Method: (§1) H240-Kn113 (SEQ ID NO: 92) resulting from introduction of Y234E and Y235N into H240-Kn072, H240-Kn115 (SEQ ID NO: 93) resulting from introduction of S239M into H240-Kn072, and H240-Kn125 (SEQ ID NO: 94) resulting from introduction of Y235Q and S239M into H240-Kn072 were prepared according to the method described in Reference Example 1.
(§2) Analysis of interaction between obj ective antibody and the FcγR was carried out using Biacore T100 (GE Healthcare), Biacore T200, Biacore A100, and Biacore 4000. HBS-EP+ (GE Healthcare) was used as the running buffer, and the measurement temperature was set to 25° C. Chips produced by immobilizing the antigen peptide by the amine coupling method to a Series S sensor Chip CM5 (GE Healthcare), chips produced by allowing preliminarily biotinylated antigen peptides to interact with and immobilize onto a Series S Sensor Chip SA (certified) (GE Healthcare), chips produced by immobilizing Protein L (ACTIGEN, BioVision) to Series S Sencor Chip CM5 (GE Healthcare), or chips produced by immobilizing Protein A/G (Thermo Scientific) to Series S Sencor Chip CM5 (GE Healthcare) were used. Antibodies of interest were captured onto these chips, and allowed to interact to each FcγR diluted with running buffer. To regenerate and repeatedly use the chip, the antibodies captured onto the chip were washed off by reacting 10 mM glycine-HCl, pH 1.5.

FcgRIIb = target: T2, FcgRIIb
Method: as §1, §2

FcgRIIIa F = target: T4, FcgRIIIa F (human, UniProt P08637 17-208)
T4 construct: extracellular domain; also called FcγRIIIa F; not shown: His tag attached to the C terminus
Method: as §1, §2

FcgRIIa H = target: T3, FcgRIIa H
Method: as §1, §2

FcgRIIIa V = target: T5, FcgRIIIa V (human, UniProt P08637 17-208)
T5 construct: extracellular domain; also called FcγRIIIa V; not shown: His tag attached to the C terminus
Method: as §1, §2

FcgRIa = target: T6, FcgRIa (human, UniProt P12314 16-292)
T6 construct: extracellular domain; Expressed in FreeStyle293 cells and purified; used as analyte in Biacore; also called FcγRIa; FcγRI; not shown: His tag attached to the C terminus
Method: as §1, §2

T5 sequence (P08637 17-208 F176V limits assumed): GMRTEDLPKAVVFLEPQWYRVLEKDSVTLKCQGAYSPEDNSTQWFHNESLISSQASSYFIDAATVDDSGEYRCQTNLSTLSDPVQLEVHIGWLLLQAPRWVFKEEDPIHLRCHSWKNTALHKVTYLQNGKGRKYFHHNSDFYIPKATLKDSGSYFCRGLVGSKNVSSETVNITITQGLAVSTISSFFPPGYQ
T6 sequence (P12314 16-292): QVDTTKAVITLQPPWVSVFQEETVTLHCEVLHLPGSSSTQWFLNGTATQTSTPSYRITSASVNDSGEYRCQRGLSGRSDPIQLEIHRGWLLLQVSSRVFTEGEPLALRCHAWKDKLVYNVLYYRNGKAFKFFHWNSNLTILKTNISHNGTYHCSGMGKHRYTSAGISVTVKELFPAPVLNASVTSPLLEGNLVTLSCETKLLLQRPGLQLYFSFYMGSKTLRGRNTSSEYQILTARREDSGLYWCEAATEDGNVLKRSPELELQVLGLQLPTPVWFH
T4 sequence (P08637 17-208): as the sequence (P08637 17-208 F176V limits assumed) above, with V160F counted along it

| Binder | Kd (FcgRIIa R) | Kd (FcgRIIb) | Kd (FcgRIIIa F) | Kd (FcgRIIa H) | Kd (FcgRIIIa V) | Kd (FcgRIa) |
| --- | --- | --- | --- | --- | --- | --- |
| H240-Kn113/H240-Hl076/L73-k0 (antibody, human IgG1, kappa, Heterodimerized anti-EREG IgG1: Kn113 is H240-Kn072 with Y234E and Y235N) heavy 1: QDQLVQSGAEVKKPGASVKVSCKASGFNIKDTYIQWVRQAPGQGLEWMGRIDPLRKQTKYREKFEGRVTITADTSTNTAYMELSSLRSEDTAVYYCVRSGREFDYWGQGTLVTVSSASTKGPSVFPLAPSSKSTSGGTAALGCLVKDYFPEPVTVSWNSGALTSGVHTFPAVLQSSGLYSLSSVVTVPSSSLGTQTYICNVNHKPSNTKVDKKVEPKSCDKTHTCPPCPAPEENWGPSVFLFPPKPKDTLMISRTPEVTCVVVDVSDEEPEVKFNWYVDGVEVHNAKTKPREEQYNATYRVVSVLTVLHQDWLNGKEYKCKVSNKALPAPIEKTISKAKGQPREPQVCTLPPSRDELTKNQVSLWCLVKGFYPSDIAVEWESNGQPENNYKTTPPVLDSDGSFFLYSKLTVDKSRWQQGNVFSCSVMHEALHNHYTQKSLSLSP heavy 2: QDQLVQSGAEVKKPGASVKVSCKASGFNIKDTYIQWVRQAPGQGLEWMGRIDPLRKQTKYREKFEGRVTITADTSTNTAYMELSSLRSEDTAVYYCVRSGREFDYWGQGTLVTVSSASTKGPSVFPLAPSSKSTSGGTAALGCLVKDYFPEPVTVSWNSGALTSGVHTFPAVLQSSGLYSLSSVVTVPSSSLGTQTYICNVNHKPSNTKVDKKVEPKSCDKTHTCPPCPAPELLGGPSVFLFPPKPKDTLMISRTPEVTCVVVDVSHEEPEVKFNWYVDGVEVHNAKTKPREEQYNSTYRVVSVLTVLHQDWLNGKEYKCKVSNDALPMPIEETISKAKGQPREPQVYTLPPSRCELTKNQVSLSCAVKGFYPSDIAVEWESNGQPENNYKTTPPVLDSDGSFFLVSKLTVDKSRWQQGNVFSCSVMHEALHNHYTQKSLSLSP light: DIQMTQSPSSLSASVGDRVTITCRASQDIHKYIAWYQQKPGQAPRLLIQYTSTLQPGVPSRFSGSGSGTDYTFTISSLQPEDIATYYCLQYEQLRTFGGGTKVEIKRTVAAPSVFIFPPSDEQLKSGTASVVCLLNNFYPREAKVQWKVDNALQSGNSQESVTEQDSKDSTYSLSSTLTLSKADYEKHKVYACEVTHQGLSSPVTKSFNRGEC | 600 nM | 5 µM | 1.7 nM | 350 nM | 0.62 nM | 0.21 nM |
| H240-Kn125/H240-Hl076/L73-k0 (antibody, human IgG1, kappa, Heterodimerized anti-EREG IgG1: Kn125 is H240-Kn072 with Y235Q and S239M) heavy 1: QDQLVQSGAEVKKPGASVKVSCKASGFNIKDTYIQWVRQAPGQGLEWMGRIDPLRKQTKYREKFEGRVTITADTSTNTAYMELSSLRSEDTAVYYCVRSGREFDYWGQGTLVTVSSASTKGPSVFPLAPSSKSTSGGTAALGCLVKDYFPEPVTVSWNSGALTSGVHTFPAVLQSSGLYSLSSVVTVPSSSLGTQTYICNVNHKPSNTKVDKKVEPKSCDKTHTCPPCPAPEYQWGPMVFLFPPKPKDTLMISRTPEVTCVVVDVSDEEPEVKFNWYVDGVEVHNAKTKPREEQYNATYRVVSVLTVLHQDWLNGKEYKCKVSNKALPAPIEKTISKAKGQPREPQVCTLPPSRDELTKNQVSLWCLVKGFYPSDIAVEWESNGQPENNYKTTPPVLDSDGSFFLYSKLTVDKSRWQQGNVFSCSVMHEALHNHYTQKSLSLSP heavy 2: QDQLVQSGAEVKKPGASVKVSCKASGFNIKDTYIQWVRQAPGQGLEWMGRIDPLRKQTKYREKFEGRVTITADTSTNTAYMELSSLRSEDTAVYYCVRSGREFDYWGQGTLVTVSSASTKGPSVFPLAPSSKSTSGGTAALGCLVKDYFPEPVTVSWNSGALTSGVHTFPAVLQSSGLYSLSSVVTVPSSSLGTQTYICNVNHKPSNTKVDKKVEPKSCDKTHTCPPCPAPELLGGPSVFLFPPKPKDTLMISRTPEVTCVVVDVSHEEPEVKFNWYVDGVEVHNAKTKPREEQYNSTYRVVSVLTVLHQDWLNGKEYKCKVSNDALPMPIEETISKAKGQPREPQVYTLPPSRCELTKNQVSLSCAVKGFYPSDIAVEWESNGQPENNYKTTPPVLDSDGSFFLVSKLTVDKSRWQQGNVFSCSVMHEALHNHYTQKSLSLSP light: DIQMTQSPSSLSASVGDRVTITCRASQDIHKYIAWYQQKPGQAPRLLIQYTSTLQPGVPSRFSGSGSGTDYTFTISSLQPEDIATYYCLQYEQLRTFGGGTKVEIKRTVAAPSVFIFPPSDEQLKSGTASVVCLLNNFYPREAKVQWKVDNALQSGNSQESVTEQDSKDSTYSLSSTLTLSKADYEKHKVYACEVTHQGLSSPVTKSFNRGEC | 380 nM | 4.2 µM | 1.2 nM | 190 nM | 0.37 nM | 0.24 nM |
| H240-Kn115/H240-Hl076/L73-k0 (antibody, human IgG1, kappa, Heterodimerized anti-EREG IgG1: Kn115 is H240-Kn072 with S239M) heavy 1: QDQLVQSGAEVKKPGASVKVSCKASGFNIKDTYIQWVRQAPGQGLEWMGRIDPLRKQTKYREKFEGRVTITADTSTNTAYMELSSLRSEDTAVYYCVRSGREFDYWGQGTLVTVSSASTKGPSVFPLAPSSKSTSGGTAALGCLVKDYFPEPVTVSWNSGALTSGVHTFPAVLQSSGLYSLSSVVTVPSSSLGTQTYICNVNHKPSNTKVDKKVEPKSCDKTHTCPPCPAPEYYWGPMVFLFPPKPKDTLMISRTPEVTCVVVDVSDEEPEVKFNWYVDGVEVHNAKTKPREEQYNATYRVVSVLTVLHQDWLNGKEYKCKVSNKALPAPIEKTISKAKGQPREPQVCTLPPSRDELTKNQVSLWCLVKGFYPSDIAVEWESNGQPENNYKTTPPVLDSDGSFFLYSKLTVDKSRWQQGNVFSCSVMHEALHNHYTQKSLSLSP heavy 2: QDQLVQSGAEVKKPGASVKVSCKASGFNIKDTYIQWVRQAPGQGLEWMGRIDPLRKQTKYREKFEGRVTITADTSTNTAYMELSSLRSEDTAVYYCVRSGREFDYWGQGTLVTVSSASTKGPSVFPLAPSSKSTSGGTAALGCLVKDYFPEPVTVSWNSGALTSGVHTFPAVLQSSGLYSLSSVVTVPSSSLGTQTYICNVNHKPSNTKVDKKVEPKSCDKTHTCPPCPAPELLGGPSVFLFPPKPKDTLMISRTPEVTCVVVDVSHEEPEVKFNWYVDGVEVHNAKTKPREEQYNSTYRVVSVLTVLHQDWLNGKEYKCKVSNDALPMPIEETISKAKGQPREPQVYTLPPSRCELTKNQVSLSCAVKGFYPSDIAVEWESNGQPENNYKTTPPVLDSDGSFFLVSKLTVDKSRWQQGNVFSCSVMHEALHNHYTQKSLSLSP light: DIQMTQSPSSLSASVGDRVTITCRASQDIHKYIAWYQQKPGQAPRLLIQYTSTLQPGVPSRFSGSGSGTDYTFTISSLQPEDIATYYCLQYEQLRTFGGGTKVEIKRTVAAPSVFIFPPSDEQLKSGTASVVCLLNNFYPREAKVQWKVDNALQSGNSQESVTEQDSKDSTYSLSSTLTLSKADYEKHKVYACEVTHQGLSSPVTKSFNRGEC | 130 nM | 1.3 µM | 1.4 nM | 62 nM | 0.43 nM | 0.27 nM |
